Results: article PMC12216052 (2025)

Tests used:
ACVR1B = molecular target: T1, ACVR1B (Homo sapiens (Human), UniProt P36896); assay: SPR steady state, receptor-Fc on chip, monomer analyte
T1 chain: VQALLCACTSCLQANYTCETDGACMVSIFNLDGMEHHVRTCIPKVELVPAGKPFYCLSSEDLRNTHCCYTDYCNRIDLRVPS

ACVR2A = ACVR2A (Homo sapiens (Human), UniProt P27037); assay: as above
Chain of ACVR2A (P27037 25-118): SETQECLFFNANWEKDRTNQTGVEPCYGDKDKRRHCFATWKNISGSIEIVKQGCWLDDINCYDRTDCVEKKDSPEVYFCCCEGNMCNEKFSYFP

Kd (ACVR1B): > 10 µM
Kd (ACVR2A): > 10 µM
B1: DLK1 (protein)
chain: VANSCTPNPCENDGVCTDIGGDFRCRCPAGFIDKTCSRPVTNCASSPCQNGGTCLQHTQVSYECLCKPEFTGLTCVKK
